Test [1] deals with cynomolgus TIM-3 Fc fusion antigen (Sino Biologicals) (cynomolgus monkey (Macaca fascicularis)). Nature of the test: ELISA; EC50 on cynomolgus TIM-3 over EC50 on human TIM-3. (An ELISA detects its analyte on a solid surface through an enzyme-linked reagent.)
The target is the same in test [2]. Nature of the test: ELISA; TIM-3 Fc fusion coated at 1 µg/ml, antibody titrated 2-fold from 1000 nM, HRP secondary.

Sequence of cynomolgus TIM-3 Fc fusion antigen (Sino Biologicals) (cynomolgus monkey (Macaca fascicularis)) (chain, as listed by the source limits assumed): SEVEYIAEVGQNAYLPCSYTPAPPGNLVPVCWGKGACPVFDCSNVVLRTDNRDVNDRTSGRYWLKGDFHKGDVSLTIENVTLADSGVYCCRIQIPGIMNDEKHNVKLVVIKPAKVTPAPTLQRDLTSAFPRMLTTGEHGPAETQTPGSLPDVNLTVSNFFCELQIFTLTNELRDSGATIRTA

B1: antibody 19416 (antibody, V domains shown)
VH: QVQLVESGPGLVKPSQTLSLTCTVSGGSINSGGYYWSWIRQHPGKGLEWIGYIYYSGSIYYNPSLRSRLTISVDTSKNQFSLKLSSVTAADTAVYYCATPYYYGSGSYGDYWGQGTLVTVSS
VL: DIQMTQSPATLSLSPGERATLSCRASQSVNNYLAWYQQKPGQAPRLLIYDASNRATGIPARFSGSGSGTDFTLTISSLEPEDFAVYYCQQRSNWPITFGQGTRLEIK
Turning to B1, the Ratio Cynomolgus/Human EC50 in test [1] was found to be 47. Besides, the 50% effective concentration (EC50) (in general, the midpoint of the concentration-response curve) in test [2] is 9.42 nM.

(Values after patent publication US20190276531A1.)
